Substitutions are numbered along the chain they refer to.
B1: 1A6.10 (antibody, V domains shown)
VH: EVTLRESGPGLVKPTQTLTLTCTLYGFSLSTSGMGVSWIRQPPGKGLEWLAHIWWDGDNYYNPSLKSQLTISKDTSKNQVVLKLTSVDPVDTATYYCARRTRVNYAMDYWGQGTLVTVSS
VL: DIQMTQSPSSLSASVGDRVTITCKASQSVSNDVAWYQQKPGKAPKLLIYYASNRYTGVPDRFSGSGYGTDFTFTISSLQPEDIATYYCQQDYNSPWTFGGGTKVEIKR
B2: 1A6.12 (antibody, IgG1, V domains shown)
VH: B1 VH
VL: B1 VL with Y36F
B3: 1D4 (antibody, V domains shown)
VH: QVTLKESGPGILQPSQTLSLTCSFSGFSLRKSVMGVSWIRQPSGKGLEWLAHIYWDDDKYYNPSLKSRLTISKDPSRNQVFLKITSVDTADAATYYCTRRGIRSAMDYWGQGTSVTVSS
VL: SVVMTQTPKFLLVSAGDRVTITCKASQSVSNDVAWYQQKPGQSPKLLIYYASNRYTGVPDRFTGSGYGTDFTFIISTVRAEDLAVYFCQQDYNSPWTFGGGTKLEIKR
B4: 1H6 (antibody, V domains shown)
VH: EVKLVESGGGLVQPGGSRKLSCAASGFTFSDYGMVWVRQAPGKGLEWVAYISSGSSTIHYADTMKGRFTISRDNPKNTLFLQMSSLRSEDTAMYYCARRHYYAMDYWGQGTSVTVSS
VL: B3 VL with V2F, S65T, I74T, R79Q, N93T, W96F, G100S
B5: 4B4 (antibody, V domains shown)
VH: QVTLKESGPGILKPSQTLSLTCSLSGFSLSTSGMGVSWIRQPSGKGLEWLAHIWWDGDSYSNPSLRSRLTISRDTSRNQVFLRIATVDTADTATYYCARRTRVNYAMDYWGQGTSVTVSS
VL: B3 VL with I21M, Y36F, I74T, R79Q
B6: 7G3 (antibody, V domains shown)
VH: EVQLQQSGAEFVRSGASVKLSCTASGLNIKDYYIHWVKQRPEQVLDWIGWIDPENGYSEYAPRFQDKATMTADTSSNTAYLHLSSLTSEDTAVYYCNPGELARYFDYWGQGTTLTVSS
VL: DIVLSQSPATLSVTPGDSVSLSCRASQSISKNLHWYQQKSHESPRLLIKYTSQSISGIPSRFSGSGSGTDFTLSINSVETEDFGMYFCQQSISWPLTFGAGTKLELKR
B7: 1A6 (antibody, V domains shown)
VH: B5 VH with L24F, S59N, S61Y, R66K, R68Q, R73K
VL: B3 VL with Y36F, I74T, R79Q
B8: 1D8 (antibody, V domains shown)
VH: QVQLQQSGAELMKPGASVKISCKATGYTFSSYWIEWVKQRPGHGLEWIGDILPGSGSTNYNEKFKDKATFTADTSFNTAYMQLSSLTSEDSAVYYCATRRFRGLDYWGQGTTLTVSS
VL: B3 VL with V2I, P40S, I74T, R79Q, A80P, N93T, W96F, G100S
B9: 3G7 (antibody, V domains shown)
VH: QVQLQQSGAELMKPGASVKISCKATGYTFNDYWIEWVKQRPGHGLEWIGGFSHGSGSTNYNEKFKGKATFTADSSSNTAYMQLSSLTSEDSAVYYCARRRFRGMDYWGQGTSVTVSS
VL: B3 VL with V2I, I74T, S76T, R79Q, N93S, T97S
B10: 5E8 (antibody, V domains shown)
VH: QIQLVQSGPELKKPGETVKISCKASGYSFTDYSMHWVKQAPGKGLKWMDWINTETGEPTYADDFKGRFAFSLETSASTAYLQINNLKNEDTATYFCSRRRYRAFDYWGQGTTLTVSS
VL: B3 VL with V2I, T7S, P40L, I74T, S76N, R79Q, N93T, W96Y, K107Q
B11: 1D4.4 (antibody, human IgG1, V domains shown)
VH: EVTLRESGPALVKPTQTLTLTCTFSGFSLSKSVMGVSWIRQPPGKALEWLAHIYWDDDKYYNPSLKSRLTISKDTSKNQVVLTMTNMDPVDTATYYCARRGIRSAMDYWGQGTTVTVSS
VL: B3 VL
B12: 1D4.5 (antibody, human IgG1, V domains shown)
VH: B3 VH
VL: DIVMTQSPDSLAVSLGERATINCKASQSVSNDVAWYQQKPGQPPKLLIYYASNRYTGVPDRFSGSGSGTDFTLTISSLQAEDVAVYYCQQDYNSPWTFGGGTKVEIKR
B13: 1A6.3 (antibody, human IgG1, V domains shown)
VH: EVTLKESGPVLVKPTETLTLTCTVSGFSLSTSGMGVSWIRQPPGKALEWLAHIWWDGDNYYNPSLKSRLTISKDTSKSQVVLTMTNMDPVDTATYYCARRTRVNYAMDYWGQGTTVTVSS
VL: B3 VL with Y36F, I74T, R79Q
B14: 1A6.4 (antibody, human IgG1, V domains shown)
VH: B5 VH with L24F, S59N, S61Y, R66K, R68Q, R73K
VL: EIVMTQSPATLSVSPGERATLSCKASQSVSNDVAWYQQKPGQAPRLLIYYASNRYTGIPARFSGSGSGTEFTLTISSLQSEDFAVYYCQQDYNSPWTFGGGTKVEIKR

These binders were tested against recombinant purified human IL-12 p70 (human) (UniProt P29459) (assay: SPR (Biacore) per Example 1.1.B; antigen not restated, taken as human IL-12 p70).
recombinant purified human IL-12 p70 (human), sequence (chain, as listed by the source, form in doubt, chain 1 of 2): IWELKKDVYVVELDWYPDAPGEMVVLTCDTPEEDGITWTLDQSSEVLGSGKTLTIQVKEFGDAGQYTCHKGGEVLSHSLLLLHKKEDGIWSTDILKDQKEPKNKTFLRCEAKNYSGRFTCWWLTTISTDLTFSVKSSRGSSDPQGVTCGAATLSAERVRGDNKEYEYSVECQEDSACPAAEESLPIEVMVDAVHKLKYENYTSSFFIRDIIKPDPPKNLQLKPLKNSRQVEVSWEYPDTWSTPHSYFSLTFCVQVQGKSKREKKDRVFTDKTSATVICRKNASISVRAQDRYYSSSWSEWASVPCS
recombinant purified human IL-12 p70 (human), sequence (P29459 23-219, form in doubt, chain 2 of 2): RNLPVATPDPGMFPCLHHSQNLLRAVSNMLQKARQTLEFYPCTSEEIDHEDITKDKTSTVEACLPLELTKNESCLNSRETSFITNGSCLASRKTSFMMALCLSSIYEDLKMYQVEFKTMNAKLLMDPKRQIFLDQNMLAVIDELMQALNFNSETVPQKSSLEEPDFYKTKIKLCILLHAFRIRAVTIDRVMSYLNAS
B1 was tested, and the Kd was 0.024 nM, the koff was 7.6e-06 s⁻¹ and the kon was 320000 M⁻¹ s⁻¹. B2 was tested, and the Kd was 0.4 nM, the koff was 0.0003 s⁻¹ and the kon was 740000 M⁻¹ s⁻¹.

These binders were tested against recombinant purified human IL-12 p70 (human) (UniProt P29459) (assay: SPR (Biacore 3000), mAb captured via goat anti-mouse IgG Fc, human IL-12 p70 in solution).
Binder B3 has a Kd of 0.12 nM, a koff of 2.9e-05 s⁻¹ and a kon of 250000 M⁻¹ s⁻¹. B4 showed a Kd of 0.25 nM, a koff of 9.9e-05 s⁻¹ and a kon of 430000 M⁻¹ s⁻¹. B5 was tested, and the Kd was 0.1 nM, the koff was 1.4e-05 s⁻¹ and the kon was 130000 M⁻¹ s⁻¹. Work on B6 yielded a Kd of 0.27 nM, a koff of 0.00028 s⁻¹ and a kon of 1.1e+06 M⁻¹ s⁻¹. With B7 the Kd was 0.23 nM, the koff was 3.5e-05 s⁻¹ and the kon was 150000 M⁻¹ s⁻¹. B8 gave a Kd of 0.044 nM, a koff of 2.3e-05 s⁻¹ and a kon of 510000 M⁻¹ s⁻¹. Work on B9 yielded a Kd of 0.047 nM, a koff of 3.8e-05 s⁻¹ and a kon of 820000 M⁻¹ s⁻¹. For B10, the Kd was 4 nM, the koff was 0.0023 s⁻¹ and the kon was 570000 M⁻¹ s⁻¹.

Each binder was assayed against recombinant purified human IL-12 p70 (human) (UniProt P29459) (assay: cell-based or functional assay).
B3 gave an Average IC50 (nM) Human IL-12; PHA blast IFN-gamma induction assay of 0.031 nM. Work on B4 yielded an Average IC50 (nM) Human IL-12; PHA blast IFN-gamma induction assay of 0.69 nM. B5 showed an Average IC50 (nM) Human IL-12; PHA blast IFN-gamma induction assay of 0.039 nM. Binder B6 has an Average IC50 (nM) Human IL-12; PHA blast IFN-gamma induction assay of 0.047 nM. With B7 the Average IC50 (nM) Human IL-12; PHA blast IFN-gamma induction assay was 0.052 nM. B11 showed an Av. IC50(nM) huIL-12; PHA blast IFN-gamma induction assay of 0.64 nM. B8 gave an Average IC50 (nM) Human IL-12; PHA blast IFN-gamma induction assay of 0.31 nM. Binder B12 has an Av. IC50(nM) huIL-12; PHA blast IFN-gamma induction assay of 0.053 nM. B13 gave an Av. IC50(nM) huIL-12; PHA blast IFN-gamma induction assay of 0.068 nM. Binder B14 has an Av. IC50(nM) huIL-12; PHA blast IFN-gamma induction assay of 2.1 nM. In the case of B1, the Av. IC50(nM) huIL-12; PHA blast IFN-gamma induction assay is reported as 0.15 nM. Work on B9 yielded an Average IC50 (nM) Human IL-12; PHA blast IFN-gamma induction assay of 0.15 nM. B2 showed an Av. IC50(nM) huIL-12; PHA blast IFN-gamma induction assay of 0.088 nM. B10 gave an Average IC50 (nM) Human IL-12; PHA blast IFN-gamma induction assay of 12 nM.

Each binder was assayed against recombinant purified human IL-12 p70 (human) (UniProt P29459) (assay: SPR (BIAcore) per Example 1.1.B; antigen not restated, taken as human IL-12 p70).
Work on B11 yielded a Kd of 0.074 nM, a koff of 2.1e-05 s⁻¹ and a kon of 280000 M⁻¹ s⁻¹. For B12, the Kd was 0.11 nM, the koff was 3.1e-05 s⁻¹ and the kon was 300000 M⁻¹ s⁻¹. In the case of B13, the Kd is reported as 0.14 nM, the koff is reported as 2.6e-05 s⁻¹ and the kon is reported as 190000 M⁻¹ s⁻¹. Binder B14 has a Kd of 1 nM, a koff of 0.00011 s⁻¹ and a kon of 110000 M⁻¹ s⁻¹.
